From PMC10855902 (International Journal of Molecular Sciences, 2024) come the findings set out here.

In general, Kd refers to a measure of binding affinity in units of concentration.

Common to all, as to details: both partners purified
In test [1] the target is T1, Recombinant human EGFR protein (Active) (ab155639) (human, UniProt P00533 25-645, labelled with RED-tris-NTA 2nd Generation dye).
T1 construct: epidermal growth factor receptor (EGFR, ErbB-1), human, recombinant; also called EGF receptor; ErbB-1; source: bought: Abcam (ab155639), recombinant
In words: MST; RED-tris-NTA-labelled EGFR 25 nM, ligand in a 16-step 1:1 dilution series in PBS-T, 30 min at room temperature; assay concentration of the ligand 141 μM.

Test [2] concerns the target T1, Recombinant human EGFR protein (Active) …. In words: MST; RED-tris-NTA-labelled EGFR 25 nM, ligand in a 16-step 1:1 dilution series in PBS-T, 30 min at room temperature; assay concentration of the ligand 350 μM.
For test [3] the target is unchanged. The experiment in a line: MST; RED-tris-NTA-labelled EGFR 25 nM, ligand in a 16-step 1:1 dilution series in PBS-T, 30 min at room temperature; assay concentration of the ligand 705 μM.
Test [4] shares this target. In words: MST; RED-tris-NTA-labelled EGFR 25 nM, ligand in a 16-step 1:1 dilution series in PBS-T, 30 min at room temperature; assay concentration of the ligand 1 mM.
Test [5] has the same target. In words: MST; RED-tris-NTA-labelled EGFR 25 nM, ligand in a 16-step 1:1 dilution series in PBS-T, 30 min at room temperature; assay concentration of the ligand 50 μM.
The target is the same in test [6]. The experiment in a line: MST; RED-tris-NTA-labelled EGFR 25 nM, ligand in a 16-step 1:1 dilution series in PBS-T, 30 min at room temperature; assay concentration of the ligand 2.5 mM.
For test [7] the target is unchanged. In words: MST; RED-tris-NTA-labelled EGFR 25 nM, ligand in a 16-step 1:1 dilution series in PBS-T, 30 min at room temperature; assay concentration of the ligand 100 μM.
Test [8] has the same target. The experiment in a line: MST; RED-tris-NTA-labelled EGFR 25 nM, ligand in a 16-step 1:1 dilution series in PBS-T, 30 min at room temperature; assay concentration of the ligand 6.02 mM.
Test [9] shares this target. In words: MST; RED-tris-NTA-labelled EGFR 25 nM, ligand in a 16-step 1:1 dilution series in PBS-T, 30 min at room temperature; assay concentration of the ligand 250 μM.
The target is the same in test [10]. The experiment in a line: MST; RED-tris-NTA-labelled EGFR 25 nM, ligand in a 16-step 1:1 dilution series in PBS-T, 30 min at room temperature; assay concentration of the ligand 5 mM.
The target is the same in test [11]. In words: MST; RED-tris-NTA-labelled EGFR 25 nM, ligand in a 16-step 1:1 dilution series in PBS-T, 30 min at room temperature; assay concentration of the ligand 10 mM.
Test [12] has the same target. In words: MST; RED-tris-NTA-labelled EGFR 25 nM, ligand in a dilution series in PBS-T; assay concentration of the ligand not stated for the values printed in running text.
Test [13] has the same target. In words: MST; RED-tris-NTA-labelled EGFR 25 nM, ligand in a 16-step 1:1 dilution series in PBS-T, 30 min at room temperature; assay concentration of the ligand 500 μM.
Test [14] has the same target. In words: MST; RED-tris-NTA-labelled EGFR 25 nM, ligand in a 16-step 1:1 dilution series in PBS-T, 30 min at room temperature; assay concentration of the ligand 10 μM.
For test [15] the target is unchanged. The experiment in a line: MST; RED-tris-NTA-labelled EGFR 25 nM, ligand in a 16-step 1:1 dilution series in PBS-T, 30 min at room temperature; assay concentration of the ligand 3 mM.
The target is the same in test [16]. In words: MST; RED-tris-NTA-labelled EGFR 25 nM, ligand in a 16-step 1:1 dilution series in PBS-T, 30 min at room temperature; assay concentration of the ligand 463 μM.

B1: EGF fragment 34–47 (VVGYIGERCQYRDL) (peptide)
peptide: VVGYIGERCQYRDL
notes: EGF, human, residues 34-47; numbers count on: the mature protein; source: synthetic peptide (SPPS, Fmoc; crude, without preparative HPLC)
B1: the equilibrium dissociation constant (Kd) in [1] was 4.62 µM; in test [2], 1210 nM; in test [3], 2170 nM; in [4] it was 0.53 µM; in [5], 5920 nM.

B2: EGF fragment 10–15 (HDGYCL) (peptide)
peptide: HDGYCL
notes: EGF, human, residues 10-15; numbers count on: the mature protein; also called 10–15 EGF fragment; source: synthetic peptide (SPPS, Fmoc; crude, without preparative HPLC)
B2: the Kd was determined as 431 µM in test [6]; 0.0174 µM in [7]; 715 µM in [8]; 66.4 nM in [5]; 48.4 µM in [9]; 663 µM in test [10]. Moreover, in test [11], the dissociation constant Kd was found to be 533 µM.

B3: EGF fragment 38–43 (IGERCQ) (peptide)
peptide: IGERCQ
notes: EGF, human, residues 38-43; numbers count on: the mature protein; source: synthetic peptide (SPPS, Fmoc; crude, without preparative HPLC)
On to B3, for which the Kd in [12] is 100 to 1800 nM; in test [6], 0.108 µM; in test [13], 154 nM; in test [14] it was 709 nM; in test [10] it was 0.157 µM.

B4: EGF fragment 10–22 (HDGYCLHDGVCMY) (peptide)
peptide: HDGYCLHDGVCMY
notes: EGF, human, residues 10-22; numbers count on: the mature protein; source: synthetic peptide (SPPS, Fmoc; crude, without preparative HPLC)
In the case of B4, the Kd came to 8.2 µM in [7]; 35.9 µM in test [4]; 416 µM in test [15]; 70.5 nM in test [5]; 21.2 µM in test [16].
